From patent US20230242654A1, “REAGENTS FOR EXPANDING CELLS EXPRESSING RECOMBINANT RECEPTORS” (Juno Therapeutics, Inc., priority 2017, published 2023)

Experiments:
Format in all cases: cell-based, human
anti-CD19 CAR+ T cells = assay: Chronic stimulation assay, 14 days with anti-ID conjugated beads, then K562-CD19 challenge; details: 14 days CAR-specific stimulation versus none; E:T 1:1
Excerpt: Separate compositions of CD4+ and CD8+ cells were isolated from human donors, activated and transduced with a viral vector encoding an anti-CD19 CAR having an scFv derived from FMC63. CD4+ and CD8+ T cells from each donor were then separately harvested, formulated, and cryofrozen. The cryofrozen engineered CD4+ and CD8+ T cells were thawed and formulated at a 1:1 ratio of CD4+ and CD8+ T cells from the same donor to generate a T cell composition containing CAR+ T cells. Anti-ID conjugated beads against the anti-CD19 CAR were incubated with cells at a 1:1 bead:cell ratio for 14 days.
[…] The primary response of T cells from the T cell composition that had not been incubated with the anti-ID conjugated beads also was determined by similar stimulation with antigen-expressing cells (Day 0; “primary”). […] Killing activity was assessed by measuring the loss of viable target cells over 72 hours, as determined by loss of fluorescent signal over time by kinetic fluorescence microscopy (using the INCUCYTE® Live Cell Analysis System, Essen Bioscience). Killing index was determined as the inverse of the area under the curve (AUC) for target fluorescence over time. Intracellular cytokine levels of IL-2 and TNF-alpha also was assessed by flow cytometry in co-cultured T cells after incubation in the presence of Golgi inhibitor. […]

[1] = test system: T cells transduced with anti-CD19 CAR having an scFv derived from FMC63; assay: CAR-specific cell expansion with anti-ID B-1 conjugated beads, 9 days, two patient donors
Experimental: Similar studies as those described in Examples 11 and 12 were performed, except using CAR-expressing T cells generated from two different patient donors. CD3-purified T cells were isolated from peripheral blood mononuclear cells (PBMCs) of two donor patients, transduced with a viral vector encoding an anti-CD19 CAR having an scFv derived from FMC63, expanded in culture, frozen, and thawed.
Thawed CD4+, CD8+ or co-cultures of CD4/CD8 (1:1 ratio) were seeded in wells of a 6-well plate at approximately 5×10^6 total cells/well in culture media that was additionally supplemented with cytokines as follows: for CD4+ cells or CD4+/CD8+ co-cultures media was supplemented with approximately 1200 IU/mL recombinant IL-7, 20 IU/mL recombinant IL-15 and 100 IU/mL recombinant IL-2; for CD8+ cells media was supplemented with 200 IU/mL recombinant IL-2 and 20 IU/mL recombinant IL-15. Anti-ID B-1 conjugated beads were added to cells at a 1:1 cell:bead ratio and incubated up to 9 days with a 50% media exchange every 2-3 days.
At various times of culture, the number of CD4+ or CD8+ transduced cells (as detected by anti-EGFR for expression of the EGFRt surrogate marker) present in the culture for each condition was assessed and fold expansion or frequency of the CAR-expressing cells as a percent of total cells was determined. Expression of PD-1 and CD25 and cell viability also was determined.

[2] = test system: CD4+ or CD8+ CAR-expressing T cells; assay: Expansion after serial restimulation, 4 rounds in 14 days
Experimental: The ability of cells to expand ex vivo following repeated stimulations may be a potential surrogate for capacity of CAR+ T cells to persist (e.g. following initial activation) and/or is indicative of function in vivo (Zhao et al. (2015) Cancer Cell, 28:415-28). CAR+ T cells were generated as described above and thawed CD4+ or CD8+ CAR-expressing T cells were plated separately at 50,000 CAR+ cells/well. Anti-ID B-1 conjugated beads were added to cells at a 1:1 or 1:5 cell:bead ratio in the presence or absence of cytokines as described in Example 10. As a control, anti-CD3/anti-CD28 magnetic beads were added to cells at a 3:1 cell:bead ratio in the presence or absence of the cytokines. Cells were harvested every 3-4 days and counted, and restimulated with new […] using the same culture conditions after resetting cell number to initial seeding density for each round. A total of 4 rounds of stimulation during a 14 day culture period were carried out. For each round of stimulation, the number of doublings was determined.

B1: anti-ID conjugated beads: FMC63-derived scFv-specific anti-idiotype antibody (B-1 in Examples 10-14) covalently coupled to tosyl-activated magnetic beads (conjugate)
heavy: EVQLQQSGPELVKPGASVKMSCKASGYTFTDYYMKWVKQCHGKSLEWIGDINPNNGGTDYNQNFKGKATLTVDKSSSTAYMQLNSLTSEDSAVYYCAREGNNYGSRDAMDYWGQGTSVTVSSAKTTAPSVYPLAPVCGDTTGSSVTLGCLVKGYFPEPVTLTWNSGSLSSGVHTFPAVLQSDLYTLSSSVTVTSSTWPSQSITCNVAHPASSTKVDKKIEPRGPTIKPCPPCKCPAPNLLGGPSVFIFPPKIKDVLMISLSPIVTCVVVDVSEDDPDVQISWFVNNVEVHTAQTQTHREDYNSTLRVVSALPIQHQDWMSGKEFKCKVNNKDLPAPIERTISKPKGSVRAPQVYVLPPPEEEMTKKQVTLTCMVTDFMPEDIYVEWTNNGKTELNYKNTEPVLDSDGSYFMYSKLRVEKKNWVERNSYSCSVVHEGLHNHHTTKSFSRTPGK
light: QIVLTQSPALMSASPGEKVTMTCSASSGVIYMYWYQQKPRSSPKPWIYLTSNLASGVPARFSGSGSGTSYSLTISSMEAEDAATYYCQQWSSNPLTFGAGTKLELKRADAAPTVSIFPPSSEQLTSGGASVVCFLNNFYPKDINVKWKIDGSERQNGVLNSWTDQDSKDSTYSMSSTLTLTKDEYERHNSYTCEATHKTSTSPIVKSFNRNEC
Intracellular cytokine levels of IL-2 and TNF-alpha (anti-CD19 CAR+ T cells): also were reduced | expansion of CAR-expressing (EGFRt+) CD4+ T cells ([1]; CD4+ cells cultured alone, 1:1 cell:bead, up to 9 days): over 60 fold | expansion of CAR-expressing (EGFRt+) CD8+ T cells ([1]; CD8+ T cells co-cultured with CD4+ cells): substantially higher expansion | CD25 expression ([1]; after 9 days): also was decreased | frequency of transduced cells (EGFRt+) in the culture ([1]; day 9): > 90% | PD-1 expression on CD4+ and CD8+ T cells ([1]; days 5, 7 and 9): decreased substantially over time | Viability of CD4+ and CD8+ cells ([1]; during the 9 day culture): ~100% | expansion of CAR-expressing (EGFRt+) CD4+ cells after restimulation ([2]; 1:1 or 1:5 cell:bead, 4 rounds): continued cell expansion | extent of expansion of CD4+ cells ([2]; versus anti-CD3/anti-CD28 beads): the extent of expansion was greater | expansion of CD8+ T cells ([2]; versus anti-CD3/anti-CD28 beads, particularly without recombinant cytokines): expansion was somewhat greater
